Literature values, collected in paper PMC8526019.
pKd: −log10 of the molar value. Each block holds one substance with its values, some of them ahead of it.

Experiments:
ATG3 (Homo sapiens) = ATG3 (Homo sapiens) (UniProt Q9NT62)
ATG14 (Homo sapiens) = ATG14 (Homo sapiens) (UniProt Q6ZNE5)
[1] = biological target: Atg7 (Saccharomyces cerevisiae) (UniProt P38862)
[2] = biological target: E-cadherin (Homo sapiens) (UniProt P12830)

Sequence of UniProt Q6ZNE5 (Q6ZNE5 whole entry): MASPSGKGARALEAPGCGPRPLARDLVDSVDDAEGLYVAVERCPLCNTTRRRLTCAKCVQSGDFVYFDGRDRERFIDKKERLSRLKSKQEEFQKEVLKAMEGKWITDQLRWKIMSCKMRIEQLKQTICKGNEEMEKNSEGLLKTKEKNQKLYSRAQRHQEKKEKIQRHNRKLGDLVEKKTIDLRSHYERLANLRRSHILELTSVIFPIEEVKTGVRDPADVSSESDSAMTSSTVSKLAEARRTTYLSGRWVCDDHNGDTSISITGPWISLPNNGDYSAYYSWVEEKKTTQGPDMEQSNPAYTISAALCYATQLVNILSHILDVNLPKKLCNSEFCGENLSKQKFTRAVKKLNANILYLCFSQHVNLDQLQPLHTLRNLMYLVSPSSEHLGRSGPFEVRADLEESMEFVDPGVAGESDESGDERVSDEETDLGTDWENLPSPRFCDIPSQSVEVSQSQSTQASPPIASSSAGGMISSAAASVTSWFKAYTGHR
Sequence of UniProt Q9NT62 (Q9NT62 whole entry): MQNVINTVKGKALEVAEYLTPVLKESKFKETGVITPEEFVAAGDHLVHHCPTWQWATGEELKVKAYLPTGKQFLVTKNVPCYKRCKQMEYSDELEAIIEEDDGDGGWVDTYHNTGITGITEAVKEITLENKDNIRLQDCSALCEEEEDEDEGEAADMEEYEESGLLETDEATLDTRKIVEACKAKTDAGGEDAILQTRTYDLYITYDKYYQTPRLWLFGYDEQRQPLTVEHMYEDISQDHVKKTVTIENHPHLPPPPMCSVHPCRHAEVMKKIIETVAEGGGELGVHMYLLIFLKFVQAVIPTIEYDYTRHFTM

- pKd (ATG3 (Homo sapiens)): 7.30
Substance: ATG12 (from UniProt O94817)

- pKd (ATG14 (Homo sapiens)): 5.49
Substance: BECN1 (from UniProt Q14457)

Substance: Atg7 (from UniProt P38862)
- pKd [1]: 9.00

- pKd [2]: 3.80
Substance: E-cadherin (from UniProt P12830)
